Assay results reported in patent publication US20150023971A1.

What was measured:
[1] = target: T1, …; test: SPOT length analysis, dot 33, HRP-S-protein detection
T1 sequence (peptide): SSDFAKNFV

[2] = target: T2, RSSDFA; test: SPOT length analysis, dot 59, HRP-S-protein detection
T2 sequence (peptide): RSSDFA

[3] = target: T3, …; test: SPOT length analysis, dot 31, anti-histidine detection
T3 sequence (peptide): FRSSDFAKN

[4] = target: T4, IFRSS; test: SPOT length analysis, dot 68, HRP-S-protein detection
T4 sequence (peptide): IFRSS

[5] = target: T5, DFAKNFVQ; test: SPOT length analysis, dot 43, HRP-S-protein detection
T5 sequence (peptide): DFAKNFVQ

[6] = target: T6, FAKN; test: SPOT length analysis, dot 86, HRP-S-protein detection
T6 sequence (peptide): FAKN

[7] = target: T7, …; test: SPOT length analysis, dot 20, anti-histidine detection
T7 sequence (peptide): SSDFAKNFVQT

[8] = target: T8, FRSSD; test: SPOT length analysis, dot 69, anti-histidine detection
T8 sequence (peptide): FRSSD

[9] = target: T9, IFRSSDF; test: SPOT length analysis, dot 47, anti-histidine detection
T9 sequence (peptide): IFRSSDF

[10] = target: T10, FRSSDF; test: SPOT length analysis, dot 58, HRP-S-protein detection
T10 sequence (peptide): FRSSDF

[11] = target: T11, SDFAK; test: SPOT length analysis, dot 72, anti-histidine detection
T11 sequence (peptide): SDFAK

[12] = target: T12, VQTD; test: SPOT length analysis, dot 91, anti-histidine detection
T12 sequence (peptide): VQTD

[13] = target: T13, …; test: SPOT length analysis, dot 22, anti-histidine detection
T13 sequence (peptide): RIFRSSDFAK

[14] = target: T14, RSSDFAK; test: SPOT length analysis, dot 49, anti-histidine detection
T14 sequence (peptide): RSSDFAK

[15] = target: T15, KNFVQT; test: SPOT length analysis, dot 65, HRP-S-protein detection
T15 sequence (peptide): KNFVQT

[16] = target: T16, SDFAKN; test: SPOT length analysis, dot 61, anti-histidine detection
T16 sequence (peptide): SDFAKN

[17] = target: T17, RSSDFAKN; test: SPOT length analysis, dot 40, HRP-S-protein detection
T17 sequence (peptide): RSSDFAKN

[18] = target: T18, AKNFVQT; test: SPOT length analysis, dot 54, anti-histidine detection
T18 sequence (peptide): AKNFVQT

[19] = target: T19, FRSS; test: SPOT length analysis, dot 81, HRP-S-protein detection
T19 sequence (peptide): FRSS

[20] = target: T13, …; test: SPOT length analysis, dot 22, HRP-S-protein detection
[21] = target: T20, …; test: SPOT length analysis, dot 18, anti-histidine detection
T20 sequence (peptide): FRSSDFAKNFV

[22] = target: T19, FRSS; test: SPOT length analysis, dot 81, anti-histidine detection
[23] = target: T21, IFRSSDFA; test: SPOT length analysis, dot 38, anti-histidine detection
T21 sequence (peptide): IFRSSDFA

[24] = target: T22, KNFV; test: SPOT length analysis, dot 88, HRP-S-protein detection
T22 sequence (peptide): KNFV

[25] = target: T23, DFAKNF; test: SPOT length analysis, dot 62, HRP-S-protein detection
T23 sequence (peptide): DFAKNF

[26] = target: T24, …; test: SPOT length analysis, dot 28, anti-histidine detection
T24 sequence (peptide): DFAKNFVQTD

[27] = target: T25, …; test: SPOT length analysis, dot 19, anti-histidine detection
T25 sequence (peptide): RSSDFAKNFVQ

[28] = target: T26, FRSSDFA; test: SPOT length analysis, dot 48, HRP-S-protein detection
T26 sequence (peptide): FRSSDFA

[29] = target: T27, FAKNFVQT; test: SPOT length analysis, dot 44, anti-histidine detection
T27 sequence (peptide): FAKNFVQT

[30] = target: T27, FAKNFVQT; test: SPOT length analysis, dot 44, HRP-S-protein detection
[31] = target: T28, …; test: SPOT length analysis, dot 26, HRP-S-protein detection
T28 sequence (peptide): SSDFAKNFVQ

[32] = target: T29, sortilin peptide RIFRSSDF on SPOT membrane; test: SPOT length analysis, dot 37, HRP-S-protein detection
T29 sequence (peptide, C-terminus anchored to the cellulose membrane through a beta-alanine linker): RIFRSSDF

[33] = target: T30, …; test: SPOT length analysis, dot 32, anti-histidine detection
T30 sequence (peptide): RSSDFAKNF

[34] = target: T31, …; test: SPOT length analysis, dot 27, anti-histidine detection
T31 sequence (peptide): SDFAKNFVQT

B1: recombinant his-S-tagged pro-domain of human BDNF (residues Ala1-Arg110), from pET-30 Xa/LIC, E. coli (protein, not shown: small tags and cut ends)
chain: APMKEANIRGQGGLAYPGVRTHGTLESVNGPKAGSGLTSLADTFEHVIEELLDEDQKVRPNEENNKDADLYTSRVMLSSQVPLEPPLLFLLEEYKNYLDAANMSMRVRR
Q: B1 was tested. Which BLU Sprotein [1] did it give?
A: The BLU Sprotein was 19000 BLU.

Q: What about the BLU Sprotein [2] of the same binder?
A: Its BLU Sprotein is 15900 BLU.

Q: And the BLU His [3]?
A: Its BLU His is 20400 BLU.

Q: And the BLU Sprotein [4]?
A: Its BLU Sprotein is 38500 BLU.

Q: What about the BLU Sprotein [5] of the same binder?
A: The BLU Sprotein was 14700 BLU.

Q: And the BLU Sprotein [6]?
A: Its BLU Sprotein is 13700 BLU.

Q: What about the BLU His [7] of the same binder?
A: Its BLU His is 16700 BLU.

Q: What about the BLU His [8] of the same binder?
A: Its BLU His is 15600 BLU.

Q: What about the BLU His [9] of the same binder?
A: Its BLU His is 24400 BLU.

Q: What about the BLU Sprotein [10] of the same binder?
A: The BLU Sprotein was 16900 BLU.

Q: And the BLU His [11]?
A: The BLU His was 15900 BLU.

Q: What about the BLU His [12] of the same binder?
A: Its BLU His is 15100 BLU.

Q: And the BLU His [13]?
A: The BLU His was 45500 BLU.

Q: What about the BLU His [14] of the same binder?
A: Its BLU His is 17300 BLU.

Q: What about the BLU Sprotein [15] of the same binder?
A: The BLU Sprotein was 14300 BLU.

Q: And the BLU His [16]?
A: The BLU His was 15100 BLU.

Q: And the BLU Sprotein [17]?
A: Its BLU Sprotein is 17200 BLU.

Q: What about the BLU His [18] of the same binder?
A: The BLU His was 17300 BLU.

Q: What about the BLU Sprotein [19] of the same binder?
A: The BLU Sprotein was 37000 BLU.

Q: And the BLU Sprotein [20]?
A: Its BLU Sprotein is 60500 BLU.

Q: What about the BLU His [21] of the same binder?
A: The BLU His was 19400 BLU.

Q: What about the BLU His [22] of the same binder?
A: Its BLU His is 20100 BLU.

Q: And the BLU His [23]?
A: The BLU His was 21400 BLU.

Q: What about the BLU Sprotein [24] of the same binder?
A: Its BLU Sprotein is 13800 BLU.

Q: And the BLU Sprotein [25]?
A: The BLU Sprotein was 15200 BLU.

Q: And the BLU His [26]?
A: Its BLU His is 17400 BLU.

Q: And the BLU His [27]?
A: The BLU His was 26000 BLU.

Q: What about the BLU Sprotein [28] of the same binder?
A: Its BLU Sprotein is 17200 BLU.

Q: And the BLU His [29]?
A: The BLU His was 80400 BLU.

Q: And the BLU Sprotein [30]?
A: Its BLU Sprotein is 23600 BLU.

Q: And the BLU Sprotein [31]?
A: Its BLU Sprotein is 18500 BLU.

Q: And the BLU Sprotein [32]?
A: The BLU Sprotein was 114000 BLU.

Q: What about the BLU His [33] of the same binder?
A: The BLU His was 21100 BLU.

Q: What about the BLU His [34] of the same binder?
A: The BLU His was 17500 BLU.
